According to patent US20210270842A1 (DYAX, published 2021):

T1: intact high molecular weight kininogen (HMWK) (Homo sapiens, UniProt P01042 19-644)
T1 construct: also called intact HMWK; 1-chain HMWK
T1 sequence: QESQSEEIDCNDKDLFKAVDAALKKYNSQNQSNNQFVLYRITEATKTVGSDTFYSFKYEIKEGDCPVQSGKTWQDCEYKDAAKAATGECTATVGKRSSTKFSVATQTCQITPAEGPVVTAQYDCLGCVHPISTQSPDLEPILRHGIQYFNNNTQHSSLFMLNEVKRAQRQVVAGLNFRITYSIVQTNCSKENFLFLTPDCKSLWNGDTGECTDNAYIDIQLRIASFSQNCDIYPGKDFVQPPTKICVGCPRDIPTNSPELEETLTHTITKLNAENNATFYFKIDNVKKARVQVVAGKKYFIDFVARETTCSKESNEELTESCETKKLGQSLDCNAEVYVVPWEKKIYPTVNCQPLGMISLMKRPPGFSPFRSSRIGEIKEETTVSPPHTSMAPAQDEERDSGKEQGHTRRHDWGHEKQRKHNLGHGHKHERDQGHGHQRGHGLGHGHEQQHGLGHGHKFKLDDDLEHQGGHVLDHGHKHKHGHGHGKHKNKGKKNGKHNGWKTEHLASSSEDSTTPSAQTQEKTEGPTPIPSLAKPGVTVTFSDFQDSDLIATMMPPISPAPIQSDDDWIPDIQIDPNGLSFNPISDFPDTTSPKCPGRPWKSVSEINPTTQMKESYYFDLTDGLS

B1: 559B-M0048-D12 (Fab, V domains shown)
VH: EVQLLESGGGLVQPGGSLRLSCAASGFTFSRYQMTWVRQAPGKGLEWVSSIGSSGGFTNYADSVKGRFTISRDNSKNTLYLQMNSLRAEDTAVYYCARLPANFYYYMDVWGKGTTVTVSS
VL: DIQMTQSPSSLSASVGDRVTITCRASQNIYSFLNWYQQKPGKAPKLLIYATSSLQSGVPSRFSGSGSGTDFTLTISSLQPEDFASYYCQQNYNIPWTFGQGTKVEIK
B2: 559B-M0039-D08 (Fab, V domains shown)
VH: EVQLLESGGGLVQPGGSLRLSCAASGFTFSNYAMQWVRQAPGKGLEWVSWIYSSGGPTYYADSVKGRFTISRDNSKNTLYLQMNSLRAEDTAVYYCARGLPGQPFDYWGQGTLVTVSS
VL: QSELTQPPSASGTPGQRVTISCSGSSSNIGNNYVYWYQQFPGTAPKLLIYRNNQRPSGVPDRFSGSKSGTSASLAISGLRSEDEADYYCATWDDRLSGWVFGGGTKLTVL
B3: 559B-M0068-C07 (Fab, V domains shown)
VH: EVQLLESGGGLVQPGGSLRLSCAASGFTFSSYQMHWVRQAPGKGLEWVSGIYSSGGSTPYADSVKGRFTISRDNSKNTLYLQMNSLRAEDTAVYYCARGHHGMDVWGQGTTVTVSS
VL: DIQMTQSPSSVSASVGDRVTITCRASQGISSWLAWYQQKPGKAPKLLIYAASNLQSGVPSRFSGSGSGTDFTLTISSLQPEDFATYYCQKYNIAPYTFGQGTKLEIK
B4: 559B-M0021-G11 (Fab, V domains shown)
VH: EVQLLESGGGLVQPGGSLRLSCAASGFTFSPYPMTWVRQAPGKGLEWVSGISSSGGFTPYADSVKGRFTISRDNSKNTLYLQMNSLRAEDTAVYYCARMVRGVIKAFDIWGQGTMVTVSS
VL: QYELTQPPSASGTPGQRVTISCSGSSSNIGSHYVFWYQQLPGAAPKLLIYRNNQRPSGVPDRFSGSKSGTSASLAISGLRSEDEADYYCATWDNSLSAWVFGGGTKLTVL
B5: 559B-M0061-G06 (Fab, V domains shown)
VH: EVQLLESGGGLVQPGGSLRLSCAASGFTFSKYTMWWVRQAPGKGLEWVSVISSSGGKTYYADSVKGRFTISRDNSKNTLYLQMNSLRAEDTAVYYCARTANRAFDIWGQGTMVTVSS
VL: DIQMTQSPAALSVSPGERATLSCRASQSVSSDLAWYQQKPGQAPRLLIHGASTRATGIPARFSGSGSGREFTLTISSLQSEDFAVYYCQQYNDWPPLFGPGTKVNIK
B6: 559B-M0036-G12 (Fab, V domains shown)
VH: EVQLLESGGGLVQPGGSLRLSCAASGFTFSRYYMAWVRQAPGKGLEWVSGIVPSGGQTGYADSVKGRFTISRDNSKNTLYLQMNSLRAEDTAVYYCARTRRGWFGEDYYYYMDVWGKGTLVTVSS
VL: DIQMTQSPGTLSLSPGERATVSCRASQSVGSTYLAWYQHKPGQAPRLLIYGASSRATGIPDRFSGSGSGTDFTLTISSLEPEDFAIYYCQHFHTSPPGITFGQGTRLEIK
B7: 559B-M0038-H03 (Fab, V domains shown)
VH: EVQLLESGGGLVQPGGSLRLSCAASGFTFSKYDMHWVRQAPGKGLEWVSRISSSGGKTEYADSVKGRFTISRDNSKNTLYLQMNSLRAEDTAVYYCAREYRYCTANTCSLYGMDVWGRGTTVTVSS
VL: DIQMTQSPSSLSASVGDRVAITCRTSQGVRSDFAWYQQTPGKAPRRLIYAAFILDNGVPSRFSGSGSGTEFTLTISSLQPEDFATYYCQQSYSTPLTFGGGTKVEMK
B8: 559B-M0017-H08 (Fab, V domains shown)
VH: EVQLLESGGGLVQPGGSLRLSCAASGFTFSPYWMHWVRQAPGKGLEWVSVISPSGGGTGYADSVKGRFTISRDNSKNTLYLQMNSLRAEDTAVYYCARESRGSGSHEDYWGQGTLVTVSS
VL: DIQMTQSPATLSLSPGERATLSCRASQSVSSYLAWYQQKPGQAPRLLIYGASNRGTGIPARFSGSGSGTEFTLTISSLQSEDFAVYFCQQYKNWPNLTFGGGTKVDIK
B9: 559B-M0042-E06 (Fab, V domains shown)
VH: EVQLLESGGGLVQPGGSLRLSCAASGFTFSMYKMSWVRQAPGKGLEWVSVISPSGGRTYYADSVKGRFTISRDNSKNTLYLQMNSLRAEDTAVYYCARGTRTSGLDYWGQGTLVTVSS
VL: QSALTQPASVSGSPGQSITISCTGTSSDVGGYKYVSWYQQHPGKAPKLVIYEVSNRPSGVSNRFSGSKSGNTASLTISGLQAEDEADYYCSSYTSSTTVVFGGGTKLTVL
B10: 559B-M0039-G07 (Fab, V domains shown)
VH: EVQLLESGGGLVQPGGSLRLSCAASGFTFSRYRMRWVRQAPGKGLEWVSGISPSGGWTYYADSVKGRFTISRDNSKNTLYLQMNSLRAEDTAVYYCTTDNGDYALAHWGQGTLVTVSS
VL: DIQMTQSPSSLSASVGDRVTITCRASQRIINYLNWYQQKPGKAPKLLIYAASSLQSGVPSRFSGSGSGTDFTLTISSLQPEDFATYYCQQSYSAPLTFGGGTRVEIK
B11: 559B-M0035-F05 (Fab, V domains shown)
VH: EVQLLESGGGLVQPGGSLRLSCAASGFTFSHYPMAWVRQAPGKGLEWVSGIVSSGGRTVYADSVKGRFTISRDNSKNTLYLQMNSLRAEDTAVYYCARDPYDFWSEGAFDIWGQGTMVTVSS
VL: QSVLTQPPSASGTPGQRVTISCSGSSSNIGNNFVYWYHQVPGTAPKLLIYKNNQRPSGVPDRFSGSKSAASASLAISGLRSEDEADYYCAAWDNSLSGFYVFGAGTKVTVL
B12: 559B-M0035-H09 (Fab, V domains shown)
VH: EVQLLESGGGLVQPGGSLRLSCAASGFTFSWYGMHWVRQAPGKGLEWVSRIGPSGGPTSYADSVKGRFTISRDNSKNTLYLQMNSLRAEDTAVYYCARGYYGTGRYFQHWGQGTLVTVSS
VL: DIQMTQSPDSLSLSPGDRATLSCRASQSVGSDYLAWYQQKPGQAPRLLIYDASNRATGIPARFSGSGSGTDFTLTISSLEPEDFAVYYCQQRSNWPPTFGGGTKVEIK
B13: 559B-M0043-C06 (Fab, V domains shown)
VH: EVQLLESGGGLVQPGGSLRLSCAASGFTFSAYAMRWVRQAPGKGLEWVSYISSSGGETMYADSVKGRFTISRDNSKNTLYLQMNSLRAEDTAVYYCANGYGRIDYWGQGTLVTVSS
VL: QSVLTQPASVSGSPGQSITISCTGTSSDIGGYNYVSWYQQHPGKAPKLMIYEVSNRPSGVSNRFSGSKSGNTASLTISGLQAEDEADYYCSSYTSGSTRVFGTGTRVTVL
B14: 559B-M0003-A08 (Fab, V domains shown)
VH: EVQLLESGGGLVQPGGSLRLSCAASGFTFSAYVMRWVRQAPGKGLEWVSSIGSSGGPTYYADSVKGRFTISRDNSKNTLYLQMNSLRAEDTAVYYCARRGGSGSSHAFDIWGQGTMVTVSS
VL: DIQMTQSPSSLSASVGDRVTITCRASQSISSYLNWYQQKPGKAPKLLIYAASSLQSGVPSRFSGSGSGTDFTLTISSLQPEDSGTYYCQQYNSFPLTFGGGTKVEIK
B15: 559B-M0054-B11 (Fab, V domains shown)
VH: EVQLLESGGGLVQPGGSLRLSCAASGFTFSYYGMNWVRQAPGKGLEWVSVISPSGGLTVYADSVKGRFTISRDNSKNTLYLQMNSLRAEDTAMYYCATGFAVQHGGGAFDIWGQGTMVTVSS
VL: DIQMTQSPATLSMSPGERATLSCRASQSVTTYLAWYQQKPGQAPRLLIYDASIRATGVPARFSGSGSGTDFTLTISRLEPEDFAVYYCQQRTIWPLTFGGGTKVEIK
B16: 559B-M0068-D01 (Fab, V domains shown)
VH: EVQLLESGGGLVQPGGSLRLSCAASGFTFSIYPMSWVRQAPGKGLEWVSGISPSGGKTAYADSVKGRFTISRDNSKNTLYLQMNSLRAEDTAVYYCARGQGRAVRGKLYYYGMDVWGQGTTVTVSS
VL: QSALTQPPSASQTPGQTVTISCSGSSSNIGTNNVNWYQQLPGTAPKLLISSHHRRPSGVPDRFSASKSGTSASLAISGLQSEDEADYYCAAWDDSLNGPVFGGGTKLTVL
B17: 559B-M0067-G11 (Fab, V domains shown)
VH: EVQLLESGGGLVQPGGSLRLSCAASGFTFSPYEMVWVRQAPGKGLEWVSSIVPSGGWTVYADSVKGRFTISRDNSKNTLYLQMNSLRAEDTAVYYCASPSGRGLAFDIWGQGTMVTVSS
VL: DIQMTQSPGTLSLSPGERATLSCRASQSISSSYLAWYQQKPGQAPRLLIYGASSRATGVPDRFSGSGSGTEFTLTISSLQPEDFATYYCLQQKSYPYTFGQGTKVEIK
B18: 559B-M0069-C09 (Fab, V domains shown)
VH: EVQLLESGGGLVQPGGSLRLSCAASGFTFSMYDMHWVRQAPGKGLEWVSSISSSGGYTQYADSVKGRFTISRDNSKNTLYLQMNSLRAEDTAMYYCARDRGLIAAAGGFDPWGQGTLVTVSS
VL: DIQMTQSPSSLSASVGDRVTITCRASQSIGIYLNWYQQKPGTAPKLLIYAASSLQSGVPSRFTGSGSGTDFTLTISSLQPDDFATYYCQRTYGRPLTFGGGTKVEIK

biological target: T1, intact high molecular weight kininogen …; test: ELISA: Fab coated on 96-well plate, LowCross block, biotinylated antigen, streptavidin-HRP; signal over uncoated well
Procedure: Thirty-six purified Fab clones (see Table 2 below) were assessed for binding to cleaved HWMK, intact HMWK, and LWMK using the immunoassay described in Example 1. Specifically, each of the purified Fab clones was immobilized on 96-well assay plates at a concentration of […]) in a total volume of 100 μL in PBS and incubated overnight at 2-8° C. The assay plates were blocked using LowCross blocking buffer. Biotinylated intact HMWK, biotinylated cleaved HMWK or biotinylated LMWK ([…]) was added to each well in a total volume of 100 μL and incubated for 2 hours prior to washing with a wash buffer. HRP-labeled streptavidin was added to each well at a concentration of 100 ng/mL, and the signal was developed using Ultra TMB Substrate. The signal to noise ratio was calculated using the signal observed upon the addition of the biotinylated protein to an uncoated well. (FIG. 2, panels A and B). Based on the ELISA results, the antibodies can be divided among 5 categories (Table 2).

Binding result, binds:
B1
B2
B3
B4
B5
B6
B7
B8
B9
B10
B11
B12
B13
B14
B15
B16
B17
B18
